Data on one molecule can be found in patent US9675625B2, “Medicament comprising recombinant antibody against chemokine receptor CCR4” (KYOWA HAKKO KIRIN CO., LTD., priority 2003, dated 2017).

Several values for one entry are separate records, joined by “and”; a condition that tells them apart may be missing. Identical values can stand only once.

In assay [1] the test system is CCRF-CEM cells. Briefly: antitumor effect of KM 2760 and vincristine in combination, CCRF-CEM cells grafted in nude mouse. The assay is classed as in vivo, Balb/c nude mouse. The note with it: Day 10; KM 2760 800 μg per mouse Day 0 and Day 4; VCR 0.55 mg/kg Day 0; tail vein.
In assay [2] the test system is CCRF-CEM cells. Put plainly: antitumor effect of KM 2760 and etoposide in combination, CCRF-CEM cells grafted in nude mouse. It counts as in vivo, Balb/c nude mouse. The note with it: Day 7; KM 2760 800 μg per mouse Day 0 and Day 4; VP-16 10 mg/kg Day 0 to Day 4; tail vein. The protocol:
CCRF-CEM cells (human T cell leukemia cell line) were suspended in RPMI 1640 medium (Gibco BRL) at a concentration of 2×10^8 cells/mL, and 100 μL of the suspension was grafted into the ventral skin of Balb/c nude mice (Nippon Crea, male). On Day 17 after the cell grafting, a diameter of a tumor was measured with calipers, and a tumor volume was calculated using formula 2 in Example 2.
Individuals having the tumor volume within the range of from 121 to 348 mm^3 (on average 195 mm^3) were selected, and grouped such that the average tumor volume to be almost the same. Each of the following agents A to D was then administered to the mice. Incidentally, the grouping day was defined as Day 0.
(§1) B. Group of administering KM 2760 alone: 800 μg of KM2760 was administered per mouse on Day 0 and Day 4.
C. Group of administering etoposide (hereinafter referred to as VP-16; Lastet injection, Nippon Kayaku Co., Ltd.) alone: 10 mg/kg of VP-16 was administered per mouse for 5 days from Day 0 to Day 4. […]
The experiment was conducted with groups each consisting of five mice. […] On Day 7, the tumor volume was measured. The antitumor effect was evaluated by comparing average values of a tumor volume change (V/V0) on Day 7 when the tumor volume on Day 0 in each group was defined as V0.

In assay [3] the test system is CCR4/EL4 cells. Briefly: antitumor effect of KM 2760 and IFN-α in combination, CCR4/EL4 cells grafted into tail vein of C57BL/6 mice, liver weight ratio. It counts as in vivo, C57BL/6 mouse. The protocol:
CCR4/EL4 cells were suspended in RPMI 1640 medium (manufactured by Gibco BRL) at a concentration of 5×10^5 cells/mL, and 100 μl of the suspension was grafted into the tail vein of C57BL/6 mice (CLEA Japan Inc., male, 8 weeks old). Further, mice were grouped into A to D, and each of the agents A to D were administered to the mice. Incidentally, the day on which the tumor was grafted was defined as Day 0.
B. Group of administering IFN-α alone: 5×10^4 units of IFN-α (Universal type I interferon, manufactured by PBL Biomedical Laboratories) was intravenously administered per mouse once a day for 5 days from Day 1 to Day 5.
The experiment was conducted with group A consisting of 7 mice and groups B, C and D each consisting of 6 mice. […] The weight of all mice was measured on Day 14. After etherization and exsanguination, mice were brought to euthanasia by dislocation of the cervical spine. The liver was extracted, and the weight of the liver was then measured. A ratio of the liver weight to the weight of each individual (hereinafter referred to as a weight ration of a liver) was calculated by percentage.
The antitumor effect was evaluated by comparing the liver weight ratio (average value of six mice) of untreated healthy mice measured simultaneously and the liver weight ratio of each group increased by metastasis of tumor cells.
Further, the residual amount of tumor cells in the liver in each group was calculated as a T/C value using the following formula. T/C=(average values of a weight ration of a liver of each group−average value of a weight ration of a liver of an untreated mouse)/(average value of a weight ration of a liver of a negative control group−average value of a weight ration of a liver of an untreated mouse) (Formula 4)

Assay [4] relates to CCR4/EL4 cells.
Procedure: CCR4/EL4 cells (WO 01/64754) were suspended in RPMI 1640 medium (manufactured by Gibco BRL) at a concentration of 1×10^5 cells/mL, and 200 μL of the suspension was grafted into the peritoneal cavity of C57BL/6 mice (CLEA Japan Inc., male, 8 weeks old). After, mice was grouped into A to D, and each of the agents A to D was administered to each mouse. The day on which the tumor was grafted was defined as Day 0.
B. Group of administering M-CSF alone: 100 μg of M-CSF (Leucoprol, manufactured by Kyowa Hakko Kogyo Co., Ltd.) was intraperitoneally administered per mouse twice a day from Day-3 to Day-1 and once a day on Day 0, seven times in total.
The experiment was conducted with groups each consisting of 8 mice. […] The antitumor effect was evaluated by a ratio of average values of the number of survival days of mice in each group to an average value of the number of survival days of mice in the negative control group (hereinafter referred to as a life prolongation ratio).
Assay [5] relates to CCRF-CEM cells. Briefly: antitumor effect of KM 2760 and Methotrexate in combination, CCRF-CEM cells grafted in nude mouse. It counts as in vivo, Balb/c nude mouse. To be noted: Day 7; KM 2760 800 μg per mouse Day 0 and Day 4; MTX 15 mg/kg Day 0 to Day 4; tail vein. The protocol:
CCRF-CEM cells (human T cell leukemia cell line) were suspended in RPMI 1640 medium (Gibco BRL) at a concentration of 2×10^8 cells/mL, and 100 μL of the suspension was grafted into the ventral skin of Balb/c nude mice (CLEA Japan Inc. male). On Day 17 after the cell grafting, a diameter of a tumor was measured with calipers, and a tumor volume was calculated using formula 2 in Example 2.
Individuals having the tumor volume within the range of 121 to 348 mm^3 (on average 195 mm^3) were selected, and grouped such that the average tumor volume to be almost the same. Each of the following agents A to D was administered to the mice. Incidentally, the grouping day was defined as Day 0.
as §1
C. Group of administering Methotrexate (hereinafter referred to as MTX; Methotrexate injection solution, Nippon Weisledary K.K.) alone: 15 mg/kg of MTX was administered per mouse for 5 days from Day 0 to Day 4. […]
The experiment was conducted with groups each consisting of five mice. […] On Day 7, the tumor volume was measured. The antitumor effect was evaluated by comparing average values of a tumor volume change (V/V0) when the tumor volume on Day 0 in each group was defined as V0.

Where [6] appears, read: KM 2760 50 μg i.p. Day 0, M-CSF 100 μg i.p. seven times.

B1: KM 2760: anti-CCR4 human chimeric antibody KM 2760 (FERM BP-7054, WO 01/64754) (antibody, V domains shown)
VH: EVQLVESGGDLMKPGGSLKISCAASGFIFSNYGMSWVRQTPDMRLEWVATISSASTYSYYPDSVKGRFTISRDNAENSLYLQMNSLRSEDTGIYYCGRHSDGNFAFGYWGRGTLVTVSA
VL: DVLMTQTPLSLPVSLGDQASISCRSSRNIVHINGDTYLEWYLQRPGQSPKLLIYKVSNRFSGVPDRFSGSGSGTDFTLKISRVEAEDLGVYYCFQGSLLPWTFGGGTRLEIRR
For the molecule B1, the “T/C (V/V0 of group divided by V/V0 of negative control group)” value came out at 0.43 in assay [1], 0.65 in assay [2] and 0.65 in assay [5]. The “T/C value (residual amount of tumor cells in the liver, from liver weight ratio)” value in assay [3] (Day 14, KM 2760 0.5 μg per mouse i.v. Day 1 and Day 5, IFN-α 5×10^4 units per mouse i.v. Day 1 to Day 5) is 0.52. Further, the “antitumor effect compared to untreated group A (liver weight ratio)” value in assay [3] (FIG. 7, Day 14) is on record as “low”. Also, the “Number of survival days (each mouse)” value in assay [4] (8 mice per group, KM 2760 50 μg per mouse i.p. Day 0, M-CSF 100 μg per mouse i.p. seven times Day-3 to Day 0, observation to Day 50) is 19 days and 21 days (3×) and 22 days and 24 days and 26 days and 27 days. Moreover, the “Average number of survival days” value in assay [4] (setting [6]) is reported as 22.9 days. Further, in assay [4] (setting [6]), the “Life prolongation ratio (average survival days of group / negative control group)” value is 1.19. The “antitumor effect in comparison with untreated Group A (survival)” value in assay [4] (Table 7) is “low”.
